Results: patent publication CN117567625A (INST MED BIOTECHNOLOGY CAMS, dated 2024)

Molecular target: T1, Claudin18.2 on 人胃癌NUGC4细胞 (human, UniProt P56856-2 1-261)
T1 construct: whole, on cells
T1 sequence (looked up): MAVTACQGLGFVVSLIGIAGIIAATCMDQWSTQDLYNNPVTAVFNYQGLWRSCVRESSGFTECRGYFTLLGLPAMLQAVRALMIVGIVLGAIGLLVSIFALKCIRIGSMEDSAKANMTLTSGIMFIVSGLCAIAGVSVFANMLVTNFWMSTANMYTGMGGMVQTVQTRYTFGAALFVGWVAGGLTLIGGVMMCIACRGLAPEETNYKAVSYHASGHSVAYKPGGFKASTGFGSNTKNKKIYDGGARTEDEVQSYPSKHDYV
Test: flow cytometry on NUGC4 cells, anti-mouse IgG Fc-FITC

B1: 抗Claudin18.2小鼠单克隆抗体m1D6 (antibody, V domains shown)
VH: QVQLQQPGPELVMPGASVKLSCKASGYTFTSYRMHWVKQRPGQGLEWIGEIDPSNSYTNYNQNFRGRSTLTVDKSSSTAYMQLSSLTSGDSAVYYCARLGRGNTLGYWGQGTSVTVSS
VL: DIVMTQSPSSLTVTAGEKVTVGCKSSQSLLNSGNQKNYLTWYQQKPGQPPKLLIYWASTRESGVPDRFTGSGSGTDFTLTIRSVQAEDLAVYYCQNGYSYPFTFGSGTKLEIKR
notes: Both printed entries appear to start with a leader peptide ahead of the variable region; For in vivo imaging the antibody was labelled with Dylight680
- binding result: binds
